This note sets out measurements from patent publication US20240254209A1 (published 2024).

Residue numbers refer to the chain shown, from its start.

The chains are these.
T1: peanut allergen Ara h 6 (peanut (Arachis hypogaea), UniProt Q647G9 22-145)
T1 construct: also called recombinant Ara h 6
T1 sequence (looked up): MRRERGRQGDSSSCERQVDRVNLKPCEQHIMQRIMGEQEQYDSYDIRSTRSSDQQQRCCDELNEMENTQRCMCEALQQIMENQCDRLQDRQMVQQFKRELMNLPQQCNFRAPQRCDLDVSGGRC

T2: peanut allergen Ara h 1 (peanut (Arachis hypogaea), UniProt P43238 26-626)
T2 construct: also called F422
T2 sequence (looked up): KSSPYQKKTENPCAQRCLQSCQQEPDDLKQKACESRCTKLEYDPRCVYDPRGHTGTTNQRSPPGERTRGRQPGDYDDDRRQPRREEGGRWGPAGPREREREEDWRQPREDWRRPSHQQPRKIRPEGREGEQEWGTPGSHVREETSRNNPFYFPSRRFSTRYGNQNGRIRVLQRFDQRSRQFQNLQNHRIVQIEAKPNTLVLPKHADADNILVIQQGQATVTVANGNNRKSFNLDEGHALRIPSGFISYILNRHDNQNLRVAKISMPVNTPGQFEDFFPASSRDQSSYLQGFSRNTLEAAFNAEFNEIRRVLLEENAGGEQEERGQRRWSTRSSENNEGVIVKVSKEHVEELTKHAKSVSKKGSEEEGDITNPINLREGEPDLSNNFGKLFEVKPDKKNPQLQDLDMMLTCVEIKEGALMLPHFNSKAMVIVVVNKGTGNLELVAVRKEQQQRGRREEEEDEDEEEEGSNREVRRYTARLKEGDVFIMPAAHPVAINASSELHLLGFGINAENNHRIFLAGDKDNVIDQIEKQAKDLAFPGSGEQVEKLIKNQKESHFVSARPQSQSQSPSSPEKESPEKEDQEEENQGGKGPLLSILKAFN

B1: human IgE mAb 20G11 (antibody, V domains shown)
VH: QVQLVESGGGVVQPGGSLRLSCATSGFTFSSYGMHWVRQAPGKGLEWVAFIRYNGSNKYYADSVKGRFTISRDTSKNTLYLQMNSLRAEDSAVYYCAKDGDYDSWSGLTEHFQHWGQGTLVTVSS
VL: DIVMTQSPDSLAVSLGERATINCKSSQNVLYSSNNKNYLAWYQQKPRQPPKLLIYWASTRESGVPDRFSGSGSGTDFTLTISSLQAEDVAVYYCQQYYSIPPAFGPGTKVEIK
notes: human IgE from hybridoma
B2: human IgE mAb 11F10 (antibody, V domains shown)
VH: EVQLVESGGGLVQPGRSLRLSCAASGFTFDDYTMHWVRQAPGKGLEWVSSIRWNSGNLDYADSVKGRFTISRDNARHSLYLQMNSLRAEDTALYYCVKDNGLRTLDFWGQGTLVTVSS
VL: DIVMTQSPLSLPVTPGEPASISCRSSQSLLHRNGYNYLDWYLQKPGQSPQLLISLASNRASGVPDRFSGSGSGTDFTLKISRVEAEDVGVYYCMQALQTWTFGQGTKVELK
notes: human IgE from hybridoma
B3: human IgE mAb 40C7 (antibody, V domains shown)
VH: EVQLVESGGDLVQPGGSLRLSCAASRFSFGSYAMSWVRQAPGKGLEWVSAISSSGGRAYYADSVKGRFTISRDNSRNTLYLQLNSLRGEDTAFYYCTKEGDTGSLWLFDSWGQGTLVTVSS
VL: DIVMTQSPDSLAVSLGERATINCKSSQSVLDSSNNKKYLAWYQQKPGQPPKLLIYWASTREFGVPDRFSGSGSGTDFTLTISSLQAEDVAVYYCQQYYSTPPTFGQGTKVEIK
notes: human IgE from hybridoma
B4: human IgE mAb 3B10 (antibody, V domains shown)
VH: EVQLVESGGALVKPGGSLRLSCEGSGFMFSSAWLHWVRQAPGMGLELVGRMKSETDGGTLDYTAPVRGRFTISRDDSKNMFFLQMNSLKAEDTAVYYCVTGNFDYRSSPLGFWGQGALVTVSS
VL: DIQMTQSPSTLSASAGDRVTITCRASENIYKWLAWYQQKPGKAPKLLIYKVSTLESGVPSRFSGSGFGTEFTLTISSLQPGDFATYYCQHYNSFPFTFGQGTKLEVK
notes: human IgE from hybridoma
B5: human IgE mAb 4G4 (antibody, V domains shown)
VH: B3 VH with E6Q, D10G, S28I, A58T, N84S, G88A
VL: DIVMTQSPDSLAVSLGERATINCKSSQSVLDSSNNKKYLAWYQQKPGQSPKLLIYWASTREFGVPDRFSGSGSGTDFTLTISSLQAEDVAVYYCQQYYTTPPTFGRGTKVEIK
notes: human IgE from hybridoma
B6: human IgE mAb 3C3 (antibody, V domains shown)
VH: QLQLQESGPGLVKPSETLSLTCSISGASINSDDYYWGWIRQAPGEALEWIASIDASGTTFYNPSLRSRVTISVDTSTNQISLRLNSVTAADTAIYYCARRKTYYDFLTDYYNWYFDVWGRGTLVTVSS
VL: QSALTQPRSVSGSPGQSVTFSCTGINSDIRDYDYVSWYQQHPGEAPKLIIYDVTKRASGVPSRFSGSKSGNTASLTISGLQAEDEADYYCCSYSVTYSFEVFGTGTQVSVL
notes: human IgE from hybridoma
B7: human IgE mAb 26A5 (antibody, V domains shown)
VH: QVQLVQSGSELRKPGASVKVSCKASGYTFTKYGMNWVRQAPGQGLEWMGWINTNTAKPTYAQDFTGRFVFSLDTSVNTAYLEISGLKAEDTAVYYCATDGSEGSWGQGTLVTVSS
VL: DIQMTQSPSTLSASVGDRVTITCRASQSIGTWLAWHQQKPGTAPKVLIYKASNLKSGVPSRFSGSGSGTDFTLTISSLQPDDVATYYCQQYNTYSGTFGQGTRVEIK
notes: human IgE from hybridoma
B8: human IgE mAb 3B7 (antibody, V domains shown)
VH: QVQLVQSGSELKKPGASMKVSCKASGYTFTNYAMNWVRQAPGQGLEWMGWINTNTGKPTYAQGFTGRFVFSLDTSVSMAYLQISSLEAGDTAVYFCARGESLAALGSFAYWGQGTLVTVSS
VL: DIQMTQSPSSLSASVGDRVTITCRASQSINSYLAWYQQKPGKAPNLLIYAASNLQSGVPSRFSGSGSGTDFTLTISSLQPEDFATYYCQQSSSTFWTFGQGTKVEIK
notes: human IgE from hybridoma
B9: human IgE mAb 7B6 (antibody, V domains shown)
VH: QVQLQQWGAGLLKPSETLSLTCAVYGGSFNGYYWSWIRQPPGKGLEWIGEIDHSGSTNYNSSLKSRVTISVDTSKNQFSLKLSSVTAADTAVYYCARRRIGSLLKYFQDWGQGTLVTVSS
VL: SYELTQPPSVSVSPGQTASITCSGDKLGDSYVCWYQLKPGQSPVLVIYQDTKRPSGIPERFSGSNSGNTATLTISETQAMDEADYYCQAWDTTTDWVFGGGTKLTVL
notes: human IgE from hybridoma
B10: human IgE mAb 21C10 (antibody, V domains shown)
VH: EVQLVESGGGLVKPGGSLRLSCAASGFILSRSSMSWVRQAPGKGLEWVSYISSTSSHIYYADSLKGRFTISRDNTENSVYLQMSSLRAEDTGVYYCARKTNGAWFLDLWGRGTLVTVSS
VL: QSVLTQPPSVSGAPGQRVTISCTGSSSNIGAGSDVHWYQQFPGSAPHVLIYGNNQRPSGVPDRFSASKSGTSASLAITGLQADDEADYYCQSYDYDLSGSWVFGGGTKLTVL
notes: human IgE from hybridoma
B11: human IgE mAb 15A7 (antibody, V domains shown)
VH: QVQLVQSGPEVRKPGASVKVSCKTSGYMFTDYEMNWVRQAPGQGLEWMGLINPHSGDTGYAQKFQGRVSMTSDTSTRTFYLELTGLTSEDTAVYYCARSQGTFEVYYFVSWGQGSLVTVSS
VL: SYVLTQPPSVSVAPGKTASITCGAKNIATKRVHWYRQKPGQAPVVVVSDEEDRSSVIPERFSGSKSGDTATLEISRVEAGDEADYYCQVWDSLADQVVFGGGTKVTVL
notes: human IgE from hybridoma
B12: human IgE mAb 20M10 (antibody, V domains shown)
VH: EVQLVESGGGLVKPGGSLRLSCTVSGFTFNMHSMNWVRQAPGKGLEWVSFISSTSTYIYYPDSVKGRFTVSRDNSKNSLYLQMTSLRAEDTAVYYCVRRGRGGAARALDNWGQGTLVTVSS
VL: SYVLPQTPSLSVAPGQTATISCGGNNTGSKSVHWYQQKPGQAPLLVVYDNSDRPSGIPERFSGSNSGNTATLTLSRVEAEDEADYYCQVWDSTIDHVIFGGGTKLTVL
notes: human IgE from hybridoma
B13: human IgE mAb 1A8 (antibody, V domains shown)
VH: QLQLQESGPGLVKPSETLSLTCSVSDDSISTPSYFWTWIRQPPGKGLEWIASIYYTGTTYYNPSLKSRVTLSVDTPKRQFFLRLSSVTAADTAVYYCARYLDYVWLRAFDVWGQGAMVTVSS
VL: EIVLTQSPATLSLSPGERATLSCRASPSVGRFLAWYQQKPGQAPRLLIYDASQRATDIPARFSASGSGTDFTLTIDSLEPEDFAIYYCQHRSNWPVTFGGGTRVEIK
notes: human IgE from hybridoma
B14: human IgE mAb 15C2 (antibody, V domains shown)
VH: QVQLVQSESELKKPGASVKISCKASGYDLTKYAMNWVRQAPGQGLEWMGWINTNTAKPTYAQGFTGRFVFSLDTSVRTIYLEISNLKAEDTAIYYCSRDGSGASWGQGTLVTVSS
VL: B7 VL with S28N, T31R, T42K, Y49T, K55E, S63T, S76T, V83F, N92T
notes: human IgE from hybridoma
B15: human IgE mAb 9A11 (antibody, V domains shown)
VH: EVQLVESGGGLVRPGGSLRLSCVASGFTFNTYWMHWVRQAPGKGLLWVSSLNKDGSSPTYADSVKGRFTISRDNTNNTLFLQLDSLRAEDTAVYYCVRDRRAVTTARYFDLWGRGTLVTVSS
VL: DIVMTQSPESLAVSLGERATINCKSSSNIDNYLGWYQQRPGQPPKLLIYWASKRESGVPDRFSGSGSGTDFTLTIGRLQAEDVAVYYCQQYYTSPPVTFGGGTKVEIK
notes: human IgE from hybridoma

One assay concerns the target T1, peanut allergen Ara h 6. As to the kind of experiment: told in the text.
As to B1, the binding result is on record as “binds”.
B2: the binding result is reported as “binds”.

Another assay deals with T2, peanut allergen Ara h 1. The assay can be described thus: allergen specificity as listed in Table D.
Consider B3, for which the binding result is “binds”.
Regarding B4, the binding result is listed as “binds”.

A further assay concerns the target T3, peanut allergen Ara h 3 (peanut (Arachis hypogaea)).
T3 construct: also called F424
As to the kind of experiment: ImmunoCAP, hybridoma supernatant. As to the method:
(§1) Verification and validation of IgE mAbs peanut allergen specificity. Following the unbiased generation of IgE secreting human hybridomas from peanut allergic subject PBMCs, peanut protein binding and peanut allergen protein specificity was determined. Hybridoma culture supernatant was initially used for this validation. […] Using the available ImmunoCAP components (purified allergen proteins: Ara h 1, F422; Ara h 2, F423; Ara h 3, F424; Ara h 8 F352; Ara h 9 F427), the exact allergen specificity was determined for those which bound Ara h 1, 2, and 3.
(§2) Hybridoma cell culture supernatant was used for initial identification of allergen specificity using ImmunoCAP analysis. Peanut reactivity was first determined using peanut ImmunoCAP. Component analysis identified IgE antibodies specific for Ara h 1, 2, and 3. All antibodies not identified in this table were determined to bind Ara h 6.
For the molecule B5, the “ImmunoCAP kUA/L” value is 0.48 kUA/L.
Turning to B6, the “ImmunoCAP kUA/L” value was 3460 kUA/L.
As for B7, the “ImmunoCAP kUA/L” value was 0.25 kUA/L.
Turning to B8, the “ImmunoCAP kUA/L” value was 1.15 kUA/L.
Take B9: the “ImmunoCAP kUA/L” value was determined as 0.32 kUA/L.
Same read-out and setting: next, B10: 0.83 kUA/L; B11: 0.14 kUA/L.

The target in a further assay is T4, peanut allergen Ara h 8 (peanut (Arachis hypogaea)).
T4 construct: ImmunoCAP component F352; also called F352
The assay can be described thus: ImmunoCAP, hybridoma supernatant. As to the method: as §1, §2
B5: the “ImmunoCAP kUA/L” value is 0.34 kUA/L.
B6: the “ImmunoCAP kUA/L” value is 0.51 kUA/L.
For B7, the “ImmunoCAP kUA/L” value stood at 0.15 kUA/L.
B8: the “ImmunoCAP kUA/L” value stood at 0.42 kUA/L.
Consider B9, for which the “ImmunoCAP kUA/L” value worked out at 0.29 kUA/L.
Turning to B10, the “ImmunoCAP kUA/L” value stood at 0.53 kUA/L.

The target in another assay is T5, peanut allergen Ara h 9 (peanut (Arachis hypogaea)).
T5 construct: ImmunoCAP component F427; also called F427
As to the kind of experiment: ImmunoCAP, hybridoma supernatant. The method, then: as §1, §2
As to B5, the “ImmunoCAP kUA/L” value worked out at 0.19 kUA/L.
Same read-out and setting: next, B6: 0.46 kUA/L; B7: 0.14 kUA/L.
On to B8, for which the “ImmunoCAP kUA/L” value was determined as 0.25 kUA/L.
In the case of B9, the “ImmunoCAP kUA/L” value was determined as 0.21 kUA/L.
For the molecule B10, the “ImmunoCAP kUA/L” value was 0.32 kUA/L.

The target of another assay is T1, peanut allergen Ara h 6. The assay can be described thus: Phadia ImmunoCAP and/or ELISA and Western blot. (In an ELISA, binding on a coated surface is turned into a signal by an enzyme label.)
B12: the binding result is reported as “binds”.
For B13, the binding result is reported as “binds”.
For B14, the binding result is listed as “binds”.
Same read-out and setting: next, B15: “binds”.
Regarding B10, the binding result was “binds”.
